This assay concerns the target T1, CD276 expressed on cells (Du145, PC3, CD276+ 293T, CHO-K1-CD276-Luci cells) (human) (UniProt Q5ZPR3).
T1 sequence (looked up): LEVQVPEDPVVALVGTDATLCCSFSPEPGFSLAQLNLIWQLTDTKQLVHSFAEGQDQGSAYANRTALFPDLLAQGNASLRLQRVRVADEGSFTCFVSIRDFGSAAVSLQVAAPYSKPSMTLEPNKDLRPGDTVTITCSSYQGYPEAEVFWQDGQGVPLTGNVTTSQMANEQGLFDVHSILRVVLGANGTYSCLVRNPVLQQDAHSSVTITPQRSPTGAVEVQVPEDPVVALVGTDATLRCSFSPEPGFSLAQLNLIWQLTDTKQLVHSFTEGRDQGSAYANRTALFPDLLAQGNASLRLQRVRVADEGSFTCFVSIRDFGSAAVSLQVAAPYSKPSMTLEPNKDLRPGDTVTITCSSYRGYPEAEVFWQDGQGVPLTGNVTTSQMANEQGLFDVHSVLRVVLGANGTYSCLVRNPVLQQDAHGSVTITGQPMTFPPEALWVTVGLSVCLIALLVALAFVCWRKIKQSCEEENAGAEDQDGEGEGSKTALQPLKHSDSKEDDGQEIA

One molecule from US20240415884A1 can be followed below.

B1: BiTE #5 (bispecific antibody, part only; not given: anti-CD3 scFv, part only)
chain, part: EVQLVESGGGLVQPGGSLRLSCAASPFPFTIYEMSWVRQASGKALEWIGYINHSGSTNYNPSLKSRVTISRDNSKNTLYLQMNSLRAEDTAMYYCAILAPDYWGQGTLVTVSSGGGGSGGGGSGGGGS
In turn, B1 yielded an EC50 (read off the curve), percent lysis of 8 nM.
